In assay [1] the target is human GPR182 (untagged), stably expressed on HEK293T cells (human, UniProt O15218 1-404). The assay is described as follows: flow cytometry on cells. In general terms: In flow cytometry, cells or beads pass a laser one at a time.
The target in assay [2] is T1, mouse GPR182 (untagged), stably expressed on HEK293T cells (mouse, UniProt P43142 1-398).
T1 sequence: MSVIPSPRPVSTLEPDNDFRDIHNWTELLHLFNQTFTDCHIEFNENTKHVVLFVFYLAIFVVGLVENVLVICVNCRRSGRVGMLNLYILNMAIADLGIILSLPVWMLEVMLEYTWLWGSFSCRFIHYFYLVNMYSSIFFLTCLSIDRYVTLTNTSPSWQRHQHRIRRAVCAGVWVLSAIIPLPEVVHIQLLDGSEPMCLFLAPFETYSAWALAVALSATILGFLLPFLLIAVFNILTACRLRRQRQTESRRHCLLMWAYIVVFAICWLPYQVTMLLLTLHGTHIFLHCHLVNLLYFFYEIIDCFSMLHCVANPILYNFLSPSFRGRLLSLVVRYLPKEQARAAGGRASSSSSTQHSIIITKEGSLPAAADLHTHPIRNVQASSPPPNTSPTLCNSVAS
Briefly: flow cytometry on cells.

Chain of human GPR182 (untagged), stably expressed on HEK293T cells (O15218 whole entry): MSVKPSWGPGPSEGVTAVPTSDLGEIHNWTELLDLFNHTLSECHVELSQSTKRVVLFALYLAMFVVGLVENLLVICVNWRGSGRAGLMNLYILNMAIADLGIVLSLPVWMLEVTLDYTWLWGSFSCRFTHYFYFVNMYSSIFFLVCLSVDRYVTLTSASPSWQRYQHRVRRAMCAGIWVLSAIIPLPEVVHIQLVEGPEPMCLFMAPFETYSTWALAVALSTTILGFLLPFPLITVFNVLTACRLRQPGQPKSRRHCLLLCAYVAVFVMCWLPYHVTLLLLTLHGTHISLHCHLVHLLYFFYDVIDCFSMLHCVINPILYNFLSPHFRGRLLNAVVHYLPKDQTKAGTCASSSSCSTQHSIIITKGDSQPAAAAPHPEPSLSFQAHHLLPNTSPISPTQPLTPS

B1: human CXCL13 (ligand)
chain: VLEVYYTSLRCRCVQESSVFIPRRFIDRIQILPRGNGCPRKEIIVWKKNKSIVCVDPQAEWIQRMMEVLRKRSSSTLPVPVFKRKIP
For orientation: pIC50 means −log10 of the IC50, conventionally taken in molar units. Lower therefore signals a high IC50. As to B1, the pIC50 in assay [1] worked out at 7.67.

B2: human GPR15L (ligand)
chain: KRRPAKAWSGRRTRLCCHRVPSPNSTNLKGHHVRLCKPCKLEPEPRLWVVPGALPQV
Molecule B2 gave a negative-log IC50 (pIC50) in assay [1] of 8.

B3: viral macrophage inflammatory protein II (ligand)
chain: GDTLGASWHRPDKCCLGYQKRPLPQVLLSSWYPTSQLCSKPGVIFLTKRGRQVCADKSKDWVKKLMQQLPVTAR
With B3, the negative logarithm of the IC50 (pIC50) in assay [1] is 7.87; in assay [2], 6.13.

B4: human CXCL17 (ligand)
chain: SSLNPGVARGHRDRGQASRRWLQEGGQECECKDWFLRAPRRKFMTVSGLPKKQCPCDHFKGNVKKTRHQRHHRKPNKHSRACQQFLKQCQLRSFALPL
The molecule B4 came in with a negative-log IC50 (pIC50) in assay [1] of 7.89.

B5: mouse CXCL17 (ligand)
chain: SPNPGVARSHGDQHLAPRRWLLEGGQECECKDWFLQAPKRKATAVLGPPRKQCPCDHVKGREKKNRHQKHHRKSQRPSRACQQFLKRCHLASFALPL
With B5, the pIC50 in assay [2] is 5.61.

B6: mouse GPR15L (ligand)
chain: RRHPAKSLKLRRCCHLSPRSKLTTWKGNHTRPCRLCRNKLPVKSWVVPGALPQI
As to B6, in assay [2], the pIC50 came to 7.06.

B7: human CCL25 (ligand)
chain: QGVFEDCCLAYHYPIGWAVLRRAWTYRIQEVSGSCNLPAAIFYLPKRHRKVCGNPKSREVQRAMKLLDARNKVFAKLHHNTQTFQAGPHAVKKLSSGNSKLSSSKFSNPISSSKRNVSLLISANSGL
Molecule B7 yielded a negative logarithm of the IC50 (pIC50) in assay [1] of 7.17.

B8: human CCL19 (ligand)
chain: GTNDAEDCCLSVTQKPIPGYIVRNFHYLLIKDGCRVPAVVFTTLRGRQLCAPPDQPWVERIIQRLQRTSAKMKRRSS
As for B8, the negative logarithm of the IC50 (pIC50) in assay [1] came to 7.21.

The record behind these values is article doi:10.1101/2024.06.01.596940 (bioRxiv, 2024).
